Laboratory results from patent US20250074942A1, “COMPOSITIONS AND METHODS FOR COVALENT PEPTIDE-BASED MODULATORS OF HLA-E” (Calico Life Sciences LLC, priority 2022, published 2025).

Molecular target: HLA-E/B2M complex, refolded and biotinylated ([HLAE(hu)(22-305)]-Avitag + [B2M(h)(21-119)]) (human), P13747
Test: cross-linking, 10-fold excess over [HLA-E+VL9], 4 h 37 C, LC-MS

Binder | % cross-linking with HLA-E [%]
VMACRTLFL (modifications not checked) [VL9-4 Cys(mSF)] | 36
VMAPRTLCL (modifications not checked) [VL9-8 Cys(mSF)] | 87

More lines, now with the values ahead:

% cross-linking with HLA-E [%] | Binder
73 | VMCPRTLFL (modifications not checked) [VL9-3 Cys(mSF)]
22 | VMAPRTCFL (modifications not checked) [VL9-7 Cys(mSF)]
